Blank lines part the entries; values can stand above or below the substance they belong to.
Assays:
[1] = target: T1, ARFIP2 (prey, CIC format) (human) (UniProt P53365); assay: SIMPL ELISA, bait-IN/prey-CIC
T1 sequence (looked up): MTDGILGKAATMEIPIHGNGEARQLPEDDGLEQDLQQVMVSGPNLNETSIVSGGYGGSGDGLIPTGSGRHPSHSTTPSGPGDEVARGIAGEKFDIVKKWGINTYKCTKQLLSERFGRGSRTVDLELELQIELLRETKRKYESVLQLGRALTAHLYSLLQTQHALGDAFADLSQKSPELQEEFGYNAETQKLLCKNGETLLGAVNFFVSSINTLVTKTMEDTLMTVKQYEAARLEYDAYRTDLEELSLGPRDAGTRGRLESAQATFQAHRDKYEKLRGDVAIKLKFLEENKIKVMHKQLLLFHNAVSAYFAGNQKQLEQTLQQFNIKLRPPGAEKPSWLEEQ

[2] = target: SKR-2 (C. elegans prey, IC format) (C. elegans); assay: SIMPL ELISA, C. elegans lysate, IN/IC; ratio of spliced signal to total signal
[3] = target: SKR-2 (C. elegans prey, CIC format) (C. elegans); assay: SIMPL ELISA, C. elegans lysate, IN/CIC; ratio of spliced signal to total signal
[4] = target: NFE2L1 (prey, CIC format) (human) (UniProt Q14494); assay: SIMPL ELISA, bait-IN/prey-CIC
NFE2L1 (prey, CIC format) (human), sequence (Q14494 whole entry): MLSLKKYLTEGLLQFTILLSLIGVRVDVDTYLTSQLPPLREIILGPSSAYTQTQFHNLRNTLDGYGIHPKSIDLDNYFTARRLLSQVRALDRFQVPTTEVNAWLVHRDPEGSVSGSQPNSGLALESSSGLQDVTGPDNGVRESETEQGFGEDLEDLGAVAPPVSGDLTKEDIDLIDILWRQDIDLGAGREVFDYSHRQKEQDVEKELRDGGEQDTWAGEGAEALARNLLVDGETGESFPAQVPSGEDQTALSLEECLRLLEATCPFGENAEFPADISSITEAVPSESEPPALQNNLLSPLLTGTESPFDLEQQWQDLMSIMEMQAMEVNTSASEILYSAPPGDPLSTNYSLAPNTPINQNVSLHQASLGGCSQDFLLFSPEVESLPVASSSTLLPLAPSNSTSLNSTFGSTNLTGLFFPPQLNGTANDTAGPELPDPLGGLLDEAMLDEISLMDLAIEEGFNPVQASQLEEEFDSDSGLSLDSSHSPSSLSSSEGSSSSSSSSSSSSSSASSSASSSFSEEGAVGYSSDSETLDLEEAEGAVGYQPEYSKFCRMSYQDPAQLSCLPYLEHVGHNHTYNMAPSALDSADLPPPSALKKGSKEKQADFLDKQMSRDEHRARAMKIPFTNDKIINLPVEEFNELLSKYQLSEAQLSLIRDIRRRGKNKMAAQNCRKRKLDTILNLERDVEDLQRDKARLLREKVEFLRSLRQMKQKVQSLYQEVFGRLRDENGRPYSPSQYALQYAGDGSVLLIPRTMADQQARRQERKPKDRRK

[5] = target: RAD23A (prey, CIC format) (human) (UniProt P54725); assay: SIMPL ELISA, bait-IN/prey-CIC
RAD23A (prey, CIC format) (human), sequence (P54725 whole entry): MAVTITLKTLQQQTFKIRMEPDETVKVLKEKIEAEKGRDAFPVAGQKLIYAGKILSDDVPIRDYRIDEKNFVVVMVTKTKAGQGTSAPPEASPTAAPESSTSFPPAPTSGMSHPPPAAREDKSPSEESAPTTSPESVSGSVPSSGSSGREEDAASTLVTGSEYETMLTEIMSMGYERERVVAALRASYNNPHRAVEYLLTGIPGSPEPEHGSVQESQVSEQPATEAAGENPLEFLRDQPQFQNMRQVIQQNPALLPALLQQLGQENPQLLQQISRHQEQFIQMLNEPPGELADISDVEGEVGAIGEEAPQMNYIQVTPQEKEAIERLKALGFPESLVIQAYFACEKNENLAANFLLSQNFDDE

[6] = target: PEX16 (prey, CIC format) (human) (UniProt Q9Y5Y5); assay: SIMPL ELISA, bait-IN/prey-CIC
PEX16 (prey, CIC format) (human), sequence (Q9Y5Y5 whole entry): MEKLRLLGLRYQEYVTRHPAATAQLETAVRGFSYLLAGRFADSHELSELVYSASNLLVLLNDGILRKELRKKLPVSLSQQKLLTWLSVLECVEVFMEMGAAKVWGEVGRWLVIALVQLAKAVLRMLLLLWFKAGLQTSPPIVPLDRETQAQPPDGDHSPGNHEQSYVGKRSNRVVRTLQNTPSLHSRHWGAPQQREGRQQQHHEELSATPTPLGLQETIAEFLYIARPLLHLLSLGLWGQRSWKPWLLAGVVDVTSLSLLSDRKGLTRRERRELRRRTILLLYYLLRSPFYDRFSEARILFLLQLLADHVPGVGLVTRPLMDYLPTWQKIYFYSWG

[7] = target: SRC (prey, CIC format) (human) (UniProt P12931); assay: SIMPL ELISA, bait-IN/prey-CIC
[8] = target: T2, NOD1 (prey, CIC format) (human) (UniProt Q9Y239); assay: SIMPL ELISA, bait-IN/prey-CIC
T2 sequence (looked up): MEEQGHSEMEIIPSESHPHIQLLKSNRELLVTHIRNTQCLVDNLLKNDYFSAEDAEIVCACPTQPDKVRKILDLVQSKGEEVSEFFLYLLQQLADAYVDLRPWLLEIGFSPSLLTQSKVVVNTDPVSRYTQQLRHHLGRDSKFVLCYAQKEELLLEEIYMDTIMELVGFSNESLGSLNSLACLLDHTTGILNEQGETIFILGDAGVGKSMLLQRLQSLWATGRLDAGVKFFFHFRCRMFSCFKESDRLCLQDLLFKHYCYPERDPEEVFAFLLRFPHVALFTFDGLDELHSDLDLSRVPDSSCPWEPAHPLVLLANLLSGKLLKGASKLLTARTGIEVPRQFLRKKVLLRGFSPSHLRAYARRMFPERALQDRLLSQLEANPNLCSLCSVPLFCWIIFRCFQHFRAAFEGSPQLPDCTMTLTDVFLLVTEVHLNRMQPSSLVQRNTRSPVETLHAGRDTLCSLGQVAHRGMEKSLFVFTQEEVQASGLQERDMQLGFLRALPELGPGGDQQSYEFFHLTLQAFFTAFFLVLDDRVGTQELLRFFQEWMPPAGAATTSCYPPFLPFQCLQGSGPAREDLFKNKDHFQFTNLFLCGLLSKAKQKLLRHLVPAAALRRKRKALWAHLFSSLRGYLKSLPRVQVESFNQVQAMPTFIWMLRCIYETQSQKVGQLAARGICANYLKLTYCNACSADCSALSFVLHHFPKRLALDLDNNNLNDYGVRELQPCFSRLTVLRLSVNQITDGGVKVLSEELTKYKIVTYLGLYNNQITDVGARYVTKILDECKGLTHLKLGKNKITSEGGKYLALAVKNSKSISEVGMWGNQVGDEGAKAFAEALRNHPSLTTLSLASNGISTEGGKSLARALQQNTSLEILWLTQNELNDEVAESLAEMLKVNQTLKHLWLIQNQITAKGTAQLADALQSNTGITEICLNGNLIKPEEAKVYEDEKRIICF

[9] = target: IGFBP4 (prey, CIC format) (human) (UniProt P22692); assay: SIMPL ELISA, bait-IN/prey-CIC
IGFBP4 (prey, CIC format) (human), sequence (P22692 22-258 limits assumed): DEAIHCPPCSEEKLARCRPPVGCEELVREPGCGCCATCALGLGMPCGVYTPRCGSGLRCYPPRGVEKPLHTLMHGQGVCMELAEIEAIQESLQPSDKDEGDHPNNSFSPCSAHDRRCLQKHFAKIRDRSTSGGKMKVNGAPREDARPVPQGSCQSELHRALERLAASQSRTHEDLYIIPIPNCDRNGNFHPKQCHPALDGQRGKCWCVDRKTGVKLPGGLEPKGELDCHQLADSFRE

[10] = target: PDGFRB (prey, CIC format) (human) (UniProt P09619); assay: SIMPL ELISA, bait-IN/prey-CIC
[11] = target: RAP1A (prey, CIC format) (human) (UniProt P62834); assay: SIMPL ELISA, bait-IN/prey-CIC
RAP1A (prey, CIC format) (human), sequence (P62834 whole entry): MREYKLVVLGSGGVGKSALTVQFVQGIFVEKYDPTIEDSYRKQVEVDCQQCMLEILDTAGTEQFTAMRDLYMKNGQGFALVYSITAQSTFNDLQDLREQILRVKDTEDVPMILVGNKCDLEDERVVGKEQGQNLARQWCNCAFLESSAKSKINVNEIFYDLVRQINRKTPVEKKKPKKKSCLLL

[12] = target: CCNA1 (prey, CIC format) (human) (UniProt P78396); assay: SIMPL ELISA, bait-IN/prey-CIC
[13] = target: T3, PEX11B (prey, CIC format) (human) (UniProt O96011); assay: SIMPL ELISA, bait-IN/prey-CIC
T3 sequence (looked up): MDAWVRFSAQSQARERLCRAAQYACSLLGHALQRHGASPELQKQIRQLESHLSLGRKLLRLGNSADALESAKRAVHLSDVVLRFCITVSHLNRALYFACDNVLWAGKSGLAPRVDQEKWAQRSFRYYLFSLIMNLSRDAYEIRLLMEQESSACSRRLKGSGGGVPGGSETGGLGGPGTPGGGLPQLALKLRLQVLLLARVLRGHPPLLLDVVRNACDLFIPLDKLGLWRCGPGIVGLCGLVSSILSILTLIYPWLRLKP

[14] = target: RPA3 (prey, CIC format) (human) (UniProt P35244); assay: SIMPL ELISA, bait-IN/prey-CIC
[15] = target: HSP90AA1 (prey, CIC format) (human) (UniProt P07900); assay: SIMPL ELISA, bait-IN/prey-CIC
[16] = target: CXCR2 (prey, CIC format) (human) (UniProt P25025); assay: SIMPL ELISA, bait-IN/prey-CIC
CXCR2 (prey, CIC format) (human), sequence (P25025 whole entry): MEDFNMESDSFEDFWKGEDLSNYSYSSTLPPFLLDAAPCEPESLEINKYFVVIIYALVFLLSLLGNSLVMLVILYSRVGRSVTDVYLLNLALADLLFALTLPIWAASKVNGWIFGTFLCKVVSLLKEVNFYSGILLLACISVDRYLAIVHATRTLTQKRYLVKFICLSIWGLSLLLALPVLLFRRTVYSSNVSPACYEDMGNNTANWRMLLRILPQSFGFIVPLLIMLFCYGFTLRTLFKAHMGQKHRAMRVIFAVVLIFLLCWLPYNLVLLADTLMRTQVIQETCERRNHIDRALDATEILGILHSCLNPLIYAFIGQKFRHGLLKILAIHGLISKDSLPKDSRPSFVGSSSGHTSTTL

[17] = target: SMAD4 (prey, CIC format) (human) (UniProt Q13485); assay: SIMPL ELISA, bait-IN/prey-CIC
SMAD4 (prey, CIC format) (human), sequence (Q13485 whole entry): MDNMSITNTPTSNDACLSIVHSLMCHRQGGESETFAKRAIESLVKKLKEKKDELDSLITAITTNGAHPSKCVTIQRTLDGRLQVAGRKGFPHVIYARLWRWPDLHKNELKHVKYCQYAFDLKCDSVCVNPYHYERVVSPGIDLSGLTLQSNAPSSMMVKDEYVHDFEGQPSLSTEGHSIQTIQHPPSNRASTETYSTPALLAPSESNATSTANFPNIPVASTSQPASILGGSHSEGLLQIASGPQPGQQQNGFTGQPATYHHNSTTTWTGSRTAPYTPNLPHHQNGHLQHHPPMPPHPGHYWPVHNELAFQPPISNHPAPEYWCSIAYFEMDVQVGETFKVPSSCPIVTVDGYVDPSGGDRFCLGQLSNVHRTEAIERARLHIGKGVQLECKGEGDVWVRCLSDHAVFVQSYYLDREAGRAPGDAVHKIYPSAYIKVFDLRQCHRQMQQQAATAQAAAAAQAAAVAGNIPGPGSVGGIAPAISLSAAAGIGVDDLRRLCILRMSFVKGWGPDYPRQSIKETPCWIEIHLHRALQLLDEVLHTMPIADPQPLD

[18] = target: FOS (prey, CIC format) (human) (UniProt P01100); assay: SIMPL ELISA, bait-IN/prey-CIC
FOS (prey, CIC format) (human), sequence (P01100 whole entry): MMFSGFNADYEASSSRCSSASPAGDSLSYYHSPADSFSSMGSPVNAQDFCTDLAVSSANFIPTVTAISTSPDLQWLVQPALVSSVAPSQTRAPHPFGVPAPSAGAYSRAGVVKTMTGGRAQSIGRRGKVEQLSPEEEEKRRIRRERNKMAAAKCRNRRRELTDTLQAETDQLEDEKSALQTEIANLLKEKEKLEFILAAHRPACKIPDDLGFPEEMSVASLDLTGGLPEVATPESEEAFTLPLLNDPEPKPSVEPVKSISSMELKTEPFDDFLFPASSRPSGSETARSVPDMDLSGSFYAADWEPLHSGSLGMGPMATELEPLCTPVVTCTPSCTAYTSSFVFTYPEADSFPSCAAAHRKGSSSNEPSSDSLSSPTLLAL

[19] = target: T4, NRG1 (prey, CIC format) (human) (UniProt Q02297); assay: SIMPL ELISA, bait-IN/prey-CIC
T4 sequence (looked up): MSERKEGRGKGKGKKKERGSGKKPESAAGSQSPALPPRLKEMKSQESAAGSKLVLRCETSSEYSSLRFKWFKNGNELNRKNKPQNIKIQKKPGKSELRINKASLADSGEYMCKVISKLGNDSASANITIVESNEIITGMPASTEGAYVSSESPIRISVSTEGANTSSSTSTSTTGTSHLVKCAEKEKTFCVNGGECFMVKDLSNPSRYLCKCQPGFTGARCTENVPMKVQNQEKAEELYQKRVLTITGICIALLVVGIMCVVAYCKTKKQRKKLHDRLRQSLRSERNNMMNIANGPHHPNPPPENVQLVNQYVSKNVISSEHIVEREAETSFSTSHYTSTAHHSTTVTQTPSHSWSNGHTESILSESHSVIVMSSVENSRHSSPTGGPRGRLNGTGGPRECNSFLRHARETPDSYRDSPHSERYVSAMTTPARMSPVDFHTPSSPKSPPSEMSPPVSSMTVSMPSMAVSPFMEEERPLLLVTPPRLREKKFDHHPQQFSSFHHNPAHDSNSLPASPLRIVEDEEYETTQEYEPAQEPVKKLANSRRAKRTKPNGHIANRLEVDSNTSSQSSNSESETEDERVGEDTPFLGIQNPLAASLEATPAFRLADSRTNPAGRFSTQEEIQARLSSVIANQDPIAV

[20] = target: SKP2 (prey, CIC format) (human) (UniProt Q13309); assay: SIMPL ELISA, bait-IN/prey-CIC
SKP2 (prey, CIC format) (human), sequence (Q13309 whole entry): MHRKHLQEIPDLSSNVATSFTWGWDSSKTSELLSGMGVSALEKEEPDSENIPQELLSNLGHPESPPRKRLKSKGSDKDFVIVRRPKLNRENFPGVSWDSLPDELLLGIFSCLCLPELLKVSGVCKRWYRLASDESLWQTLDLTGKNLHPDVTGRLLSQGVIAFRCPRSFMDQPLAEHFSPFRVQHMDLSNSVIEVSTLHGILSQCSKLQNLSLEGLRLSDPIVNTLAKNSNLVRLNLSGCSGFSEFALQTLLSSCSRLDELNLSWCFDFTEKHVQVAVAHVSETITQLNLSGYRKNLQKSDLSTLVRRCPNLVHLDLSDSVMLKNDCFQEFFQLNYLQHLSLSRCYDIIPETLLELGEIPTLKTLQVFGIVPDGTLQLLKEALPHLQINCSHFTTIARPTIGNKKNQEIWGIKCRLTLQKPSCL

[21] = target: HGS (prey, CIC format) (human) (UniProt O14964); assay: SIMPL ELISA, bait-IN/prey-CIC
HGS (prey, CIC format) (human), sequence (O14964 whole entry): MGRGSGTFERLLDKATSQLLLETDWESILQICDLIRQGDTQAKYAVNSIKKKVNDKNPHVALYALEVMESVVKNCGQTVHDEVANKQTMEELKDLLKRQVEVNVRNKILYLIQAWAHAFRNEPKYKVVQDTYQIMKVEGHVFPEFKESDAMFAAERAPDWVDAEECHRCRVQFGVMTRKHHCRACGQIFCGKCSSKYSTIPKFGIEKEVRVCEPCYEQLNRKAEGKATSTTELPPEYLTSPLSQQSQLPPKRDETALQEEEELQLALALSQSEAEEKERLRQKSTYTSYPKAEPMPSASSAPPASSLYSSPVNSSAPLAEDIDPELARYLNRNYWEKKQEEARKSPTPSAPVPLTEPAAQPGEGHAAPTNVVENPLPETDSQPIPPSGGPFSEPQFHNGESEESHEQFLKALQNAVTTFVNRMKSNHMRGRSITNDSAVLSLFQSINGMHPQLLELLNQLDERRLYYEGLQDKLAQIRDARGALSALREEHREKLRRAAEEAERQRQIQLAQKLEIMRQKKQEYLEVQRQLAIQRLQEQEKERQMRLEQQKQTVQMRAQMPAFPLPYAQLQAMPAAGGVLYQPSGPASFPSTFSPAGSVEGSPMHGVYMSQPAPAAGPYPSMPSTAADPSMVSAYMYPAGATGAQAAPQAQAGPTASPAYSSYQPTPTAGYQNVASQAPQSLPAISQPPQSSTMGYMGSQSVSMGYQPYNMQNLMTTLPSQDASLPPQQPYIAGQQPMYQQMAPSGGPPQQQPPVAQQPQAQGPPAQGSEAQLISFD

RIPK2 (bait, IN format), sequence (O43353 whole entry): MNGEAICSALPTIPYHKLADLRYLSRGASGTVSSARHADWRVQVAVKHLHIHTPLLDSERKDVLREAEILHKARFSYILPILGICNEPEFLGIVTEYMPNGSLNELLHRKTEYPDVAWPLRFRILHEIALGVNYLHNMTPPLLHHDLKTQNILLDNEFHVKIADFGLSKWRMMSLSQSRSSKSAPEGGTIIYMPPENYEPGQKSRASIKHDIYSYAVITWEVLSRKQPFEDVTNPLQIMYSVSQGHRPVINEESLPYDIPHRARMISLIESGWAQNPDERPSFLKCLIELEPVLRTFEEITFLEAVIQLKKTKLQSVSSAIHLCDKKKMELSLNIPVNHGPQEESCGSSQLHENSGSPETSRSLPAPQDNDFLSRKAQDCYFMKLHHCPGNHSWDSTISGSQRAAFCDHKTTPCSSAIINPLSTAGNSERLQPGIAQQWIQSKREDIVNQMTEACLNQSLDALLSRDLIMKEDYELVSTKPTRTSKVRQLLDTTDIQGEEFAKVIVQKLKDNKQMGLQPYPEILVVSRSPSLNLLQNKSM

PLU mean [1]: 0.324
Substance: HIF1A (bait, IN format) (from UniProt Q16665 1-826)

PLU mean [5]: 0.0155 | PLU mean [6]: 0.0408
Substance: B2M (bait, IN format) (from UniProt P61769 21-119)

PLU mean [7]: 0.599
Substance: PTK2/FAK (bait, IN format) (from UniProt Q05397 1-1052) (enzyme)

PLU mean [8]: 1.17 | PLU mean [9]: 0.555 | PLU mean [10]: 0.881
Substance: RIPK2 (bait, IN format) (from UniProt O43353 1-540)

PLU mean [6]: 0.231
Substance: MAPK7 (bait, IN format) (from UniProt Q13164 1-816) (enzyme)

PLU mean [12]: 0.516 | PLU mean [13]: 0.113
Substance: CDKN1A (bait, IN format) (from UniProt P38936 1-164)

ELISA Value Replicate 1 [2]: 0.84 | ELISA Value Replicate 2 [2]: 0.58 | ELISA Value Replicate 1 [3]: 0.73 | ELISA Value Replicate 2 [3]: 0.42
Substance: FBXA-215 (C. elegans bait, IN-V5/HA)

PLU mean [18]: 0.245
Substance: PPP3CA (bait, IN format) (from UniProt Q08209 1-521)

PLU mean [20]: 0.301 | PLU mean [1]: 0.491
Substance: ARF1 (bait, IN format) (from UniProt P84077 1-181)

PLU mean [21]: 0.836 | PLU mean [18]: 0.481
Substance: NF2 (bait, IN format) (from UniProt P35240 1-595)

The next lines start with the substance.

Substance: FBXA-196 (C. elegans bait, IN-V5/HA)
ELISA Value Replicate 1 [2]: 0.81 | ELISA Value Replicate 2 [2]: 0.51 | ELISA Value Replicate 1 [3]: 1.1 | ELISA Value Replicate 2 [3]: 0.28

Substance: T10E9.1 (C. elegans bait, IN-V5/HA)
ELISA Value Replicate 1 [2]: 0.78 | ELISA Value Replicate 2 [2]: 0.55

Substance: GRAP2 (bait, IN format) (from UniProt O75791 1-330)
PLU mean [4]: 0.131

Substance: BAK1 (bait, IN format) (from UniProt Q16611 1-211)
PLU mean [11]: 0.564

Substance: IGF2 (bait, IN format) (from UniProt P01344 25-180) (ligand)
PLU mean [14]: 0.525 | PLU mean [9]: 0.943 | PLU mean [15]: 0.404 | PLU mean [1]: 0.266

Substance: SMAD3 (bait, IN format) (from UniProt P84022 1-425)
PLU mean [16]: 0.144 | PLU mean [17]: 0.399

Substance: DDIT3 (bait, IN format) (from UniProt P35638 1-169)
PLU mean [19]: 0.0963 | PLU mean [18]: 0.642

Substance: RAF1 (bait, IN format) (from UniProt P04049 1-648) (enzyme)
PLU mean [11]: 0.578
